From the supplement of paper PMC7877785
± gives the uncertainty stated by the source.

Assay: self-splicing fitness, log relative to wild type (ln ratio); higher = more splicing; Tetrahymena group I intron in knt gene, E. coli kanamycin selection, DiMSum; sequences stand for … in CUCUCU…GGAGGGAAAAGUUAUCAGGCAUGCACCUGGUAGCUAGUCUUUAAACCAAUAGAUUGCAUCGGUUUAAAAGGCAAGACCGUCAAAUUGCGGGAAAGGGGUCAACAGCCGUUCAGUACCAAGUCUCAGGGGAAACUUUGAGAUGGCCUUGCAAAGGGUAUGGUAAUAAGCUGACGGACAUGGUCCUAACCACGCAGCCAAGUCCUAAGUCAACAGAUCUUCUGUUGAUAUGGAUGCAGUUCACAGACUAAAUGUCGGUCGGGGAAGAUGUAUUCUUCUCAUAAGAUAUAGUCGGACCUCUCCUUAAUGGGAGCUAGCGGAUGAAGUGAUGCAACACUGGAGCCGCUGGGAACUAAUUUGUAUGCGAAAGUAUAUUGAUUAGUUUUGGAGUACUCGUGGUCG
Summary of the method: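 DiMSum derived fitness as the error-weighted combination of fold changes across replicates, kanamycin versus no kanamycin, normalised to wild type. E. coli BL21(DE3) held the library, which randomised all eight P1ex-region intron nucleotides within the knt kanamycin-resistance gene on pET-22b(+). Six replicate transformations grew overnight at 37°C or 30°C on LB agar with or without 25 μg/mL kanamycin, also containing 100 μg/mL carbenicillin, 50 μM IPTG and 0.2% rhamnose, and pooled colonies were amplicon-sequenced on an Illumina HiSeq 2500.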

Sequence	self-splicing fitness (ln) (30 °C)	self-splicing fitness (ln) (37 °C)
CCAGAGCAAUAUUACGCAAU	-2.14 ± 0.2	-2.05 ± 0.31
CCAGAGCAAUAUUACGCCAA		-3.04 ± 0.47
CCAGAGCAAUAUUACGCCAG	-3.07 ± 0.25	
CCAGAGCAAUAUUACGCCUC	-3.12 ± 0.31	0.134 ± 0.26
CCAGAGCAAUAUUACGGGAA		0.0973 ± 0.28
CCAGAGCAAUAUUACGGGCC	-2.83 ± 0.22	-2.55 ± 0.26
CCAGAGCAAUAUUACGGGUA	-2.35 ± 0.29	-2.3 ± 0.3
CCAGAGCAAUAUUACGGUGC	-2.81 ± 0.14	-2.28 ± 0.23
CCAGAGCAAUAUUACGUAAA	-2.75 ± 0.2	-1.29 ± 0.3
CCAGAGCAAUAUUACGUAAG	-1.59 ± 0.097	-0.37 ± 0.12
CCAGAGCAAUAUUACGUAUG	-2.22 ± 0.11	-1.77 ± 0.12
CCAGAGCAAUAUUACGUCGC	-3.95 ± 0.32	-2.49 ± 0.29
CCAGAGCAAUAUUACGUCUG	-3.53 ± 0.2	-1.63 ± 0.14
CCAGAGCAAUAUUACGUUGA	-2.69 ± 0.22	-3.35 ± 0.24
CCAUAGCAAUAUUACGAGAU	-3.81 ± 0.35	-2.12 ± 0.21
CCAUAGCAAUAUUACGAUAA		-3.15 ± 0.4
CCAUAGCAAUAUUACGAUCU	-3.15 ± 0.34	-2.96 ± 0.44
CCAUAGCAAUAUUACGAUGC	-3.11 ± 0.17	-1.88 ± 0.17
CCAUAGCAAUAUUACGAUUA	-3.12 ± 0.32	-2.54 ± 0.28
CCAUAGCAAUAUUACGCACU	-3.41 ± 0.4	-3.05 ± 0.34
CCAUAGCAAUAUUACGCAUG	-3.37 ± 0.19	-0.732 ± 0.13
CCAUAGCAAUAUUACGCAUU	-3.65 ± 0.26	-2.84 ± 0.36

Sequence	self-splicing fitness (ln) (30 °C)	self-splicing fitness (ln) (37 °C)
CCAUAGCAAUAUUACGCUUU	-4.72 ± 0.28	-3.1 ± 0.2
CCAUAGCAAUAUUACGGGAC		-2.82 ± 0.28
CCAUAGCAAUAUUACGUAAC		-2.7 ± 0.29
CCAUAGCAAUAUUACGUACC	-3.95 ± 0.47	-2.21 ± 0.36
CCAUAGCAAUAUUACGUAUG	-3.88 ± 0.15	-2.19 ± 0.13
CCAUAGCAAUAUUACGUCCU	-2.86 ± 0.23	-2.64 ± 0.48
CCAUAGCAAUAUUACGUGAA	-3.25 ± 0.21	-2.07 ± 0.26
CCAUAGCAAUAUUACGUGUU	-3.47 ± 0.14	-3.36 ± 0.16
CCCAAGCAAUAUUACGAAGG	-3.19 ± 0.17	-2.42 ± 0.17
CCCAAGCAAUAUUACGACUC	-3.56 ± 0.33	-2.1 ± 0.33
CCCAAGCAAUAUUACGAGCU	-4.17 ± 0.19	-2.44 ± 0.21
CCCAAGCAAUAUUACGAGGU	-3.16 ± 0.091	-2.08 ± 0.086
CCCAAGCAAUAUUACGAGUC	-3.23 ± 0.16	-3.28 ± 0.24
CCCAAGCAAUAUUACGAUCC		-2.85 ± 0.35
CCCAAGCAAUAUUACGCCCG	-2.76 ± 0.33	-2.44 ± 0.42
CCCAAGCAAUAUUACGCCUC	-2.93 ± 0.25	-2.93 ± 0.34
CCCAAGCAAUAUUACGCCUU	-3.04 ± 0.16	-2.88 ± 0.21
CCCAAGCAAUAUUACGCGGU	-3.41 ± 0.12	-1.77 ± 0.12
CCCAAGCAAUAUUACGCUAU	-3.85 ± 0.29	-3.13 ± 0.31
CCCAAGCAAUAUUACGCUCU	-3.91 ± 0.26	-2.16 ± 0.18
CCCAAGCAAUAUUACGGACA	-3.25 ± 0.27	-2.07 ± 0.14
CCCAAGCAAUAUUACGGUGU	-2.71 ± 0.089	-1 ± 0.084
